# Data from patent publication US20110287017A1.
# Biological target: membrane P-selectin coated in a flow chamber (low and high density) (UniProt P16109)
# Test: cell-based or functional assay
# membrane P-selectin coated in a flow chamber (low and high density), sequence (P16109 42-830 limits assumed): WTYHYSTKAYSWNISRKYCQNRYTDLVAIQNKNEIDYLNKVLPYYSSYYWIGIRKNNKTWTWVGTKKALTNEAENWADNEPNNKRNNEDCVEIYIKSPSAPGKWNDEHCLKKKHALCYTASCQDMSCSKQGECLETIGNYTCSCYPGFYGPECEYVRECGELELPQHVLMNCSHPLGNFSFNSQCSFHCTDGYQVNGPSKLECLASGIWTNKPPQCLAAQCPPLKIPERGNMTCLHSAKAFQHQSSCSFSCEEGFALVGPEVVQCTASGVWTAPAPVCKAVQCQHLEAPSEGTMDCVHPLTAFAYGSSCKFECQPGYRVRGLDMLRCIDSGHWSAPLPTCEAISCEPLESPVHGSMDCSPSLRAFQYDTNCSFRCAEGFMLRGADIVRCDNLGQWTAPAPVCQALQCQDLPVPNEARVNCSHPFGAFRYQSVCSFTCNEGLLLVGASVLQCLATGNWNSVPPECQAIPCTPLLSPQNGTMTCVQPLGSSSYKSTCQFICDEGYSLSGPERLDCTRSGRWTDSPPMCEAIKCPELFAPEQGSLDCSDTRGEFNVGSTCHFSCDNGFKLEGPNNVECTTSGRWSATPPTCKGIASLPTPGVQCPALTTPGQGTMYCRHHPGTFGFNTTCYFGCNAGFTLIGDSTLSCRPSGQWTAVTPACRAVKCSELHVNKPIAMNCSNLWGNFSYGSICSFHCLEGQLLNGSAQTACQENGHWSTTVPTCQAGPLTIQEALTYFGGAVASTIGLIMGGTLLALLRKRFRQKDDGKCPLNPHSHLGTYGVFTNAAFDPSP
substance,measurement,value
G3 mouse monoclonal anti-P-selectin antibody,time to block rolling neutrophils on high density P-selectin,< 20 min
